Experimental data from a protein production outcome set (Wang et al. 2014).

Test: label from the status in PepcDB records
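Further: failed if final PepcDB status was selected cloned or expressed and not failed if soluble or beyond.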

Row | Sequence | protein production
1 | ELTAQHVMTPRVRVSALQSSATAEDVVNLTRATGLSRFPVYRDRIDEIVGMVHLKDALAIPSRDRLRTPVGRIAQPPLLVPETLPVQPLLARLRSEQPIAVVVDEYGGTAGVVTLEDIVEELVGEVRDEHDGQDLPELAVAPPEDGRPAWDADGSCRVDILQRIGLDV | not failed
2 | MIKLIHNANIVLEDMILENGHLIIEGDTIKKVSNDKIDYAFDFNEIDEIIDAKNLYVIPGIIDIHSDAIEKEIEPRPSTLLPFNMAFYELDKKLPANGITTVYHSISLGDGVGVRSIDNSLKMIKNIDSYKNIDSKSINHKVHLRYEVLYYEGLEKVLELLDENKIDYLSIMDHSPGQGQYTNPTFYKEYATKVWGVTENYVDTWLDDLVNLHDNLDWNKIANIIGIAKTKNINVASHDDDTLEKMDFIKNIGINVSEFPITLEVAKHSKKLGVLTCLGAPNIVRGKSHNNNLKAMDAILEDCCDIVCSDYLPSAMIKSMCIVAERINNLNKAVSLFTSNPAKAVGIYDERGSIKENKKADLVLVDIDSEYPKVVNTIVNGKTVYKREV | failed
3 | MMTPEQIATVMTGKVEAAGKGRHEAVLASPMIQNHAPFLHLADDGALICAWFGGTLEGKSDISIFTSVLAAGSNKWGEPQRLSFDPDHSEQNPVLFAAPGNTLLLFHTSQPSGNQDECRIRMAEVSRDASDPTRLTAGEGLYLDLPRGCFVRAPLTVRADGAWLLPIFRCIQRPGQKWNGSHDRAAVGISEDCGKSWRLEDIDQSTGCVHMSPLVIGDEKLAAVFRRRQADFVYRTESADGGRTWSAPQATDVPNNNSSIAAIRLNDGRIAMICNPTNAAMSSDRRASLYDELGEDDDRPDANPDGGCVPIWGVPRAPVTVCISEDGAKSFPQRITIEDGPGTCLSNNSIDGHNKEMSYPWLLEGADGSLHIAYTYYRRAIKYVRLAPGWARAADGR | failed
4 | MDQEAFLRERIEKAQAQLQKLRDENRVLRARQIMWGCIEGTIDVCQLGEKDLQDLSSVIDDYLDSLKSRIEYLKKNGEPSSSLPPRVLQDLNVKEDGDIPSMDGSHHQFETNRLTTITTTADACAPNITNNP | failed
5 | METLSDVFATFSQRGDTTAFVHRTGVRRYVFTYLDLHALSLRMNRWLADQGVGEGDRVVLWGPNSPWWAVAFWGIVTRGAVAVPVDFMSGAERAEIIAGLTDAKLVIQSRDKLDRLTGRPSVLLEELGFLLEAVEPLATTHRPAPDDMAELIYTSGTTGNPKGVILTHRNLVANILQVNRHIPVVTPDFSFLSLLPLSHMFEQMGGFFTPLYRGAAIVYIRTLKPSAIMEALGEEDIYAIIAVPRLLQLLKGSVERELEAKGLGSIFRWLLKVGERMSRGGRSVLFRPIQRKFGRNFALFVSGGAPLDPEVFRFWNGLGFRVVEGYGLTECSPVLTANTMERQVMGSVGTPLDGVELRLEEGEILARGDNIFPGYFRNEEATRGAFVDGWFRTGDLGELDPDGWLRIKGRSKELIVTGAGVNVYPDEIEAILNRTQGVREGCVIGLDRGKGEEVHGVLILDGSGRPTEEIVNEVNAKFDELHRITSFSVWPEAEFPKTTTLKIRKFQVKERIEQGGGALGDGRGADRLTALVATITGSPLEQVTEGALLVNDLGLTSIARLELVNALEMEFRLDLEDSVIGPQTRVADLREIVSRREKVHIREHFRIWAMGGVALAVRRLLDTVLHGPLLRAFVTLKSLGIENLEAADGPVMFVSNHLSYLDQPAIMCVLPDAWRYNTATAAWEEFFFRNFKNLPQRLWKRFTYEYASVAFTVFPLPQSRGFRGALHFMGTLADQGMNILLFPEGERSRDGRLLPFQQGLGVMIRELGVPVVPVRIRGLEKVLPRGASWPQKGEVSITFGKPIHFRGESPTEIVDRARRAVEDLLEHHHHHH | failed
6 | SHIIVIGAGITGVTSAYELIKLGFQVTVIDRHLFPAMETSFANGGQLSACNAEVWNQRSTISKGIKWMSKKDAPLLLNPSFNLHKYSWLFEFLSHIKHYEQNTIETVRLALLARKRLFEIAEIENIDFNLERRGILHIYHTPSDYEIAKNVNDLLNKATLHRYQVNPDEIKTIEPALSGEYCGGYYTPDDATGDIHKFCVGLADSSKRDGVDYKFGWDVNQIELLEKGVIVSCIPSTENMTEPSSQHLRLEADGIVVCGGVGSYQLAHMLGDRVNVYPVKGYSITVHLNDEHSIENAPWVSLLDESAKIVTSRLGKDRLRVAGTAEFNGYNRDIRADRIQPLINWVNANFEISTEHVVPWSGLRPMMPNMMPVVRQGKHPRVFYNTGHGHLGWTLSAATAAIIGQEIQSKIP | failed
7 | MQRNLSHIISQATSAPLLLEPAYARVFFCALGRESGINSLHIPGNNESLDQSDMALVTGDFMATGKPQARFYQVVNGIAVLPVTGTLVHKLGGMRPFSGMTGYDGVTARLQQAVSDPEVKGILLDIDSPGGQAAGAFDCADMIYRMREQKPVWALANETACSAAMLLAAACSHRLVTQTSRMGSIGVVMAHTSYAEKLKQEGIDITLIYSGAHKADLTPSQKLPESVYADYQQRMDEARKMFAEKVARYTGLSVDAVMATEAAVYDGQAIITTGLADGMVNAADAIGVMAEAINSNKTGGTMPELSAADAVTQENQRVMGILGCPEARGHEALAQMLAGQPGMSVAQAKSILAAAAPADTTSTADRILALEEAGGRETLAQTLAAMPEMTVEQARTILAASPIAAATSLHDAVMALDEAKGREELAEKLAVMPGMTTDQARDLLAAAPDKSGNAGLSMNNAFDAFMQSHSPGPISGGKGHSNDTETTLLMSIPGTSAT | failed
8 | MAGVITGFAIILSVIGVGFLLAKLGVINDDKQRLVLNRIAFYAATPALLFNVVARSDPSALISPVIVVTFVATIVTAAVYCVISAIFFKKDIATTATGAAASAYVNSNNIGLPVSIYVLGTGAYVAPILVMQMVIFAPMILAALTSGDVKGSRGQKIWAAVKGSLLSPIVLASIAGLIVCLLEIQLPAAVMEPTIILGGASIPLILMSFGASLPSTNVLASKADRPSVLTATAIKIVGMPAITWLIAKAFGLEGDYLYAAVILAALPAAQNVYNYAATYRKGEIVARDTVFLTTFLALLGMLGIAALFGR | not failed
9 | MRKLISIFLILCTFLLCGCSDVKHELNRLSLVLCSGIDLSEDGRYIYTVEILNVGASSPQSSGKQGASPSINVFSSEGHTITEAFNNASVLSGEPLFFAHSRMVVVGERLAKYGLSDMMDKLFRHYTIRPDGLIFVTKGNARDIVSTYTPDQPLPAEKLRTMSMLQEMTGYSISYSRLDLVKALTSKSHAGAIGLISLRPDQKFSNRFNMYGAGVFKKDKLVGYLDTYETRGLQWVTGHISSGSILVPLPDGKRIVFDIIDSKSKIKTKVNGNKLTMEINVAEESLISETNDKTNVMKHYKEMNKLAKLESEAIKKEVSSALAASQDRLKTDIFGFGSEIYRDNPKYWKTVENNWDNIFPNVNVKINVKCIVRRPGLTSQPII | failed
10 | ASVVLDFLTSDDFPAVAELGAAIWHKHFIGMISREQIDYMVSSRYTPQRLGRYLDAPDRWFRLLRVDGRPVGYCSYALTGQPGEMKLEQLYLLEEMRGWGLGGRMMDEAEAAARALGCATLMLTVNRHNAGAIAVYQKRGFAVREEVVADIGNGFVMDDYMMEKLLSR | failed
11 | LETYNTCDTPPPLNNLTPYRDDGKEALKFYTDPSYFFDLWKEKMLQDTKDIMKEKRKHRKEKKDNPNRGNVNPRKIKTRKEEWEKMKMGQEF | failed
12 | MPSSGQLYGDEERELTPTPAIPEEGVYEVKYSNRRTNVVRLLPNGFQERKLRRLANLSAKLFNEVNFERRQQFFHEGKVNIEETYKKYYEKYKVILGVNAQAVLNKNNEAWSSFFSLLKLKKEGKLPPHMNHVSPPGYWKDREAGKRKQILVIRQDRYKVDAENHKLILKDFDMEIDFIGRLKWYGKQGRLEIIFDETRNAWYAHIPIEVGVEETKAGKKSKHVVKGERKSIQISKPKGNKVASIDLGINVIASVVVNDGTWLLYKGVRTKEDYFYFQKRIAEVQSLADRTRNIGEYDAYLELLREKRRLFKKLTRRLTHLYRNLASHLIETLYELGVSTIYLGYPFNIVQEKGNKFTVNMWSYRKLMESIELKAQEYGMKVFEVVEYNTSKYCAYHDVEVKRNPRGVINCPLGHKLHSDLNGALNILKKALGVIVNAVKKPLSFIVDHNRVAPIKGCNPLEHHHHHH | failed
13 | MTTPTPIRMLILEDSEDDLLLLLREVRRGGIDPAYERADSAAGLRRALDAGEWDVIVSDYNMPQFGALPALDIVKERGLDVPFIIVSGKIGEDLAVAAMKAGAHDYLMKGNLSRLVPAIERELREADERRRRRQAEEAMHAQFNQISTIFDSLNALVYVVDMNSYELLYLNKFGAQLFGEAWEGRTCHDVLHGGRSTPCDFCTNDKLIMDGKALPPYIWEYQNSISSRWYQCIDKAIRWTDGRMVRMEIAIDITERKEMERMKDEMISAVSHEMHTPLTAMMGFTEFLLENEVDRDLQKNYLKTIYRETERLNELITNFLQLQRLKASMVKFRITPVAVGLLVADVVSLYAAASKKHRIVVECPPDLPPVRGNEEQLYQAISNLVSNAIKYSPDGGDVTIGASAAADIVTLWVRDQGIGISPEFQEKIFERFFRVDNSDRRKVGGAGLGLTLVREIVATHGGRSWVESSPGKGSTFFISLPAMT | failed
14 | MEKYIHSVEDYHRLISYLENNLNYEDSVVNHVIYVIAKTGMRYGEIIGLTNNDTSLDEHYLHTYKRYNTSTWKWTNAKNESSKRYIPIDDKIVAALSNMIKERERINSLLRIKNKEEFLFFHYGLEHGIPSVATVNKALKKILKKLDIEPIITTKGLRHTYGSYLLHNNIDMGVVARILGHKDIQMLIQVYGHTLTEKIDKEFKEVEQIMNRILEHHHHHH | failed
15 | EAGTGRPVLILHGGGGPATVAPLAGHLARTAHTLVPTHPGWNGTPRPDRFAGVDDIALAYLRHLQDRGLRDVLVVGSSLGGWIGAELAARDDLGIITGLVLIDAVGIQVDGEPVRDFFALDARGVAEYSYHDPDRFYVDPADIPAGQLAARQANMATMRALAGDPYMHDPTLRGRLARVPVPTLVLWGESDRIVTPAYGRAYTDAFPDARFEVIPKAGHLPQLEQPEATFAAIDAYLAR | failed
16 | MTRIASHRGGTLEFGDSTPHGFTATAAMALEEVEFDLHPTADGAIVVHHDPTLDATTDMTGAIVDMTLAKVKTATIRYGAGSHPMTLEELCALYVDSHVNFRCEIKPGVDGLPYEGFVALVIAGLERHSMLERTTFSSFLLASMDELWKATTRPRLWLVSPSVLQQLGPGAVIETAIAHSIHEIGVHIDTADAGLMAQVQAAGLDFGCWAAHTPSQITKALDLGVKVFTTDRPTLAIALRTEHRMEASV | not failed
17 | LANKQIESRIIQFDVEFPSDEVAKQLSIEKTVPVYHIIRLRKVEGEPYVIEETYMPSNVISELNEDVLHGSVYRHITETLKLTIAGSHRKIRADKSSALDREYLECAPDDPVLEVEQVAFLNTGEPFEYSFARHRYDKFVFSSVHIRK | failed
18 | MNKNLNTFTSMRNDRQLHLYLAWGCPFCHRILASLAITKLDDNISITWMENIKGEAGWKMYFIEDPLFNSDSLKAVYQQLEPTVEHRYSVPLLVDKKNNLLLSTSSPEIVRYVAKGFDDAFSVAYDLIPNKLIKDIDEMNQWLHDKINRAVYLVGFATQQSDYEYKLYELFKALDELEERLKKQLFLFGNQLTESDLYLLATLERFDNIYFCLFKCSLKRIADYPALFRYHNQLRGMESLASTYQPVLTKEHYFMSTMHVLGEARELNPSKIIPIDYYP | failed
19 | MPNLSCGVDNCAYNQNDMCSLNSIKVNGSFANHSEATCCGSFVEKGGFTNAAVDMGPAEPATSVACEAEKCCYNKNCKCHAESIDISGDYAQHQDNTECSTFRQELEHHHHHH | not failed
